Experimental data: publication PMC5309844

Molecular target: full-length recombinant human NR1 protein (human) (UniProt Q05586)

recombinant human PDI, sequence (P07237 18-508): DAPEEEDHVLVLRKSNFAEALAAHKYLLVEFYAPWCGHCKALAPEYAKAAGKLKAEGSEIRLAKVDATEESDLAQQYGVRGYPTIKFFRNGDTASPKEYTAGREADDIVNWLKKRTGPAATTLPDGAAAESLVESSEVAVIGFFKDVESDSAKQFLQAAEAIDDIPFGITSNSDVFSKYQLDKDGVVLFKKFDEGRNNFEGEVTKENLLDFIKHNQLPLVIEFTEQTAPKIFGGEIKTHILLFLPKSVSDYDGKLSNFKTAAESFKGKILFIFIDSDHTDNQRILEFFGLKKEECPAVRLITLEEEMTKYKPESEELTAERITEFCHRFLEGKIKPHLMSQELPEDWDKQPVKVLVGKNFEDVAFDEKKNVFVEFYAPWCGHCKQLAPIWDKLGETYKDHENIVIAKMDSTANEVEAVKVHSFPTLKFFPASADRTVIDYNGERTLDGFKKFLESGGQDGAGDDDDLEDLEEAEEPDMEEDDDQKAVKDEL

amount of thiols on recombinant NR1 protein after 2 h with recombinant PDI at room temperature (in vitro thiol reductase assay, modified biotin switch and Western blot), against vehicle: 3.2 fold
Substance: recombinant human PDI (from UniProt P07237 18-508) (enzyme)
